Results reported in patent US20220175781A1, “CD40L COMPOSITIONS AND METHODS FOR TUNABLE REGULATION” (Obsidian Therapeutics, Inc., priority 2019, published 2022).

Key:
Format in all cases: cell-based
CD8+ T cells = experiment: Ligand dose response, % CD40L positive cells, CD8+ T cells
Method: Ligand dose response curve experiments were performed with increasing doses of ligand using OT-001662 and OT-001666 constructs in both CD4+ as well as CD8+ T cells.
The experiments were conducted using three different volumes of virus for transduction i.e. 0.5, 2 and 10 μL.

HEK-Blue™ CD40 cells = experiment: HEK-Blue CD40 SEAP reporter co-culture with transduced Jurkat cells; conditions: ligand 24 h (1 μM Shield-1, 50 μM TMP or 1 μM Bazedoxifene), recombinant soluble CD40L as standard
Method: Jurkat cells transduced with OT-001661, OT-001685, OT-001662, OT-001666, or OT-001667 were co-cultured with HEK-Blue™ CD40 cells (Invivogen, San Diego, Calif.). Cocultures were treated with ligands (1 μM Shield-1, 50 μM TMP, 1 μM Bazedoxifene (BZD) or vehicle control) for 24 hours and the secreted embryonic alkaline phosphatase (SEAP) reporter levels were measured in the media. All vehicle treated samples had background SEAP activity. Recombinant soluble CD40L was used as the standard in the experiments.

T cells (CD4+ and CD8+) = experiment: Regulation of CD40L in T cells by different drug responsive domains
CD8 positive T cells = experiment: CD40L MFI by FACS in transduced CD8 positive T cells
Method: Regulation of ecDHFR (R12Y, Y100I) DRD based construct OT-001662 and ER (N413D) DRD based construct OT-001666 were tested in CD8 positive T cells. For OT-001662, expressing cells, ligand was added 6 days after viral transduction at a dose of 50 μM TMP. OT-001666 expressing cells were treated with 0.5 μM Bazedoxifene or vehicle control, 5 days after transduction. Approximately 15-30k cells were analyzed per sample by FACS. All samples were compared to empty vector control as well as the constitutively expressed construct, OT-001661. Table 11 provides the mean fluorescence intensities (MFIs) obtained with each sample.

T cells = experiment: Dose response of TMP, Bazedoxifene or Raloxifene, % CD40L positive T cells; conditions: T cells
Method: T cells were transduced with OT-001662 or OT-001666. On day 4, cells were treated with increasing doses of TMP for T cells expressing OT-001662. Cells expressing OT-001666 were treated either with increasing concentrations of Bazedoxifene or Raloxifene. The data are shown in Table 30 as the percentage of CD40L positive T cells.

Jurkat cells = experiment: Surface expression of CD40L by FACS in lentivirally transduced Jurkat cells; conditions: FACS
Method: 50,000 Jurkat cells were transduced with lentiviruses corresponding to the constructs. OT-001661, OT-001685, OT-001662, or OT-001666 and cultured for 48h. Cells were split and incubated with ligands for 24h before analysis by flow cytometry.
Jurkat cells were treated with one of the following: 1 μM Shield-1, 50 μM TMP, 1 μM Bazedoxifene (BZD) or vehicle control. Surface expression of CD40L was measured using FACS and the results are show in Table 9. All values were normalized to mode.

[1] = system: Monocyte derived dendritic cells (mDC); experiment: Cytokine production in mDC-T cell co-culture (MSD); conditions: for Cytokine Production IFNg / Cytokine Production IL12 / Cytokine Production TNFa: mDC-T cell co-culture 2 days
Source text: In order to engage dendritic cells in an immune response, dendritic cells must be converted to a functional state by an antigen-specific CD4+ helper T cell. Activation of the dendritic cells may be followed by the activation of CD8+ T cells by the dendritic cells, a process referred to as dendritic cell licensing. Engagement of the CD40L expressed on the CD4+ cells with the CD40 on the dendritic cells can result in (i) dendritic cell stimulation-measured by expression of co-stimulatory and MHC molecules (ii) proinflammatory cytokine release (e.g. IL12, TNFα and INFγ) (iii) epitope spreading. To measure the effect of CD40L expression that is tuned by the biocircuits of the present disclosure, CD4+ T cells or Jurkat cells expressing any of the CD40L constructs described herein were co-cultured with dendritic cells.
Dendritic cell function in response to co-culture with T cells expressing CD40L was evaluated in the presence of ligand or corresponding vehicle control. Monocyte derived dendritic cells (mDC) (CD14+) were isolated from fresh blood and cultured for 5 days with IL-4 (7.5 ng/mL) and GM-CSF (20 ng/mL). The mDCs were frozen down after the 5 day culture. T cells were transduced with OT-001662 and expanded for 9 days before being frozen down. mDCs and T cells were thawed and co-cultured 1:10 DC: T cell ratio (i.e. 5×10^4 DCs: 5×10^5 T cells). mDC and T cells were co-cultured for 2 days before cells were collected for flow cytometry and supernatants were collected for cytokine analysis. For evaluation of regulated constructs, ligand (various doses of TMP) was added at the time initiating the co-culture and was kept in the co-culture for 2 days. Cytokines were analyzed by MSD after a single freeze thaw cycle. All cells were cultured in complete RPMI with 10% FBS during the course of the experiment. SR indicates stabilization ratio.

[2] = ligand 24 h (1 μM Shield-1 OT-001685, 50 μM TMP OT-001662, 1 μM Bazedoxifene OT-001666)
[3] = vehicle 24 h (Ethanol 0.2% OT-001685, DMSO 0.5% OT-001662, DMSO 0.01% OT-001666)

B1: OT-001662: CD40L construct with ecDHFR (M1del, R12Y, Y100I) DRD, ligand TMP (protein)
chain: MSGISLIAALAVDYVIGMENAMPWNLPADLAWFKRNTLNKPVIMGRHTWESIGRPLPGRKNIILSSQPGTDDRVTWVKSVDEAIAACGDVPEIMVIGGGRVIEQFLPKAQKLYLTHIDAEVEGDTHFPDYEPDDWESVFSEFHDADAQNSHSYCFEILERRHMIETYNQTSPRSAATGLPISMKIFMYLLTVFLITQMIGSALFAVYLHRRLDKIEDERNLHEDFVFMKTIQRCNTGERSLSLLNCEEIKSQFEGFVKDIMLNKEETKKENSFEMQKGDQNPQIAAHVISEASSKTTSVLQWAEKGYYTMSNNLVTLENGKQLTVKRQGLYYIYAQVTFCSNREASSQAPFIASLCLKSPGRFERILLRAANTHSSAKPCGQQSIHLGGVFELQPGASVFVNVTDPSQVSHGTGFTSFGLLKL
Q: Which “% CD40L positive cells” value (CD8+ T cells; 0.5 μL virus, TMP 0.05 nM) does the source give for B1 here?
A: 0.16%

Q: And the “% CD40L positive cells” value (CD8+ T cells; 0.5 μL virus, TMP 0.5 nM)?
A: 0.17%

Q: What about the “% CD40L positive cells” value (CD8+ T cells; 0.5 μL virus, TMP 5 nM) of the same molecule?
A: 0.12%

Q: And the “% CD40L positive cells” value (CD8+ T cells; 0.5 μL virus, TMP 50 nM)?
A: 0.19%

Q: And the “% CD40L positive cells” value (CD8+ T cells; 0.5 μL virus, TMP 500 nM)?
A: 0.66%

Q: What about the “% CD40L positive cells” value (CD8+ T cells; 0.5 μL virus, TMP 5000 nM) of the same molecule?
A: 9.21%

Q: And the “% CD40L positive cells” value (CD8+ T cells; 0.5 μL virus, TMP 50000 nM)?
A: 25.2%

Q: What about the “% CD40L positive cells” value (CD8+ T cells; 2 μL virus, TMP 0.05 nM) of the same molecule?
A: 0.2%

Q: And the “% CD40L positive cells” value (CD8+ T cells; 2 μL virus, TMP 0.5 nM)?
A: 0.34%

Q: And the “% CD40L positive cells” value (CD8+ T cells; 2 μL virus, TMP 5 nM)?
A: 0.3%

Q: What about the “% CD40L positive cells” value (CD8+ T cells; 2 μL virus, TMP 50 nM) of the same molecule?
A: 0.64%

Q: What about the “% CD40L positive cells” value (CD8+ T cells; 2 μL virus, TMP 500 nM) of the same molecule?
A: 6.84%

Q: And the “% CD40L positive cells” value (CD8+ T cells; 2 μL virus, TMP 5000 nM)?
A: 40.6%

Q: And the “% CD40L positive cells” value (CD8+ T cells; 2 μL virus, TMP 50000 nM)?
A: 51%

Q: What about the “% CD40L positive cells” value (CD8+ T cells; 10 μL virus, TMP 0.05 nM) of the same molecule?
A: 0.95%

Q: What about the “% CD40L positive cells” value (CD8+ T cells; 10 μL virus, TMP 0.5 nM) of the same molecule?
A: 1.08%

Q: What about the “% CD40L positive cells” value (CD8+ T cells; 10 μL virus, TMP 5 nM) of the same molecule?
A: 1.02%

Q: And the “% CD40L positive cells” value (CD8+ T cells; 10 μL virus, TMP 50 nM)?
A: 1.07%

Q: What about the “% CD40L positive cells” value (CD8+ T cells; 10 μL virus, TMP 500 nM) of the same molecule?
A: 5.53%

Q: What about the “% CD40L positive cells” value (CD8+ T cells; 10 μL virus, TMP 5000 nM) of the same molecule?
A: 47.4%

Q: What about the “% CD40L positive cells” value (CD8+ T cells; 10 μL virus, TMP 50000 nM) of the same molecule?
A: 59.4%

Q: What about the “Soluble CD40L” value (HEK-Blue™ CD40 cells) of the same molecule?
A: 8657.75 pg/mL

Q: What about the CD40L positive (T cells (CD4+ and CD8+); All Cells, 10 uM TMP) of the same molecule?
A: 89.7%

Q: What about the MFI (T cells (CD4+ and CD8+); All Cells, 10 uM TMP) of the same molecule?
A: 2122

Q: And the CD40L positive (T cells (CD4+ and CD8+); All Cells, DMSO)?
A: 7.6%

Q: And the MFI (T cells (CD4+ and CD8+); All Cells, DMSO)?
A: 140

Q: And the CD40L positive (T cells (CD4+ and CD8+); CD4+, 10 uM TMP)?
A: 94.4%

Q: And the MFI (T cells (CD4+ and CD8+); CD4+, 10 uM TMP)?
A: 2608

Q: And the CD40L positive (T cells (CD4+ and CD8+); CD4+, DMSO)?
A: 8.8%

Q: What about the MFI (T cells (CD4+ and CD8+); CD4+, DMSO) of the same molecule?
A: 152

Q: And the CD40L positive (T cells (CD4+ and CD8+); CD8+, 10 uM TMP)?
A: 74.9%

Q: What about the MFI (T cells (CD4+ and CD8+); CD8+, 10 uM TMP) of the same molecule?
A: 1070

Q: And the CD40L positive (T cells (CD4+ and CD8+); CD8+, DMSO)?
A: 91.8%

Q: What about the MFI (T cells (CD4+ and CD8+); CD8+, DMSO) of the same molecule?
A: 2.1

Q: What about the “Expression of CD40L in the presence of ligand, comparison of constructs” value (CD8 positive T cells) of the same molecule?
A: higher than the ER DRD based construct

Q: And the “CD40L MFI” value (CD8 positive T cells; +Ligand (50 μM TMP OT-001662; 0.5 μM Bazedoxifene OT-001666))?
A: 283

Q: And the “CD40L MFI” value (CD8 positive T cells; Vehicle)?
A: 29.0

Q: And the “% CD40L positive T cells, dose response” value (T cells; increasing doses of TMP)?
A: dose dependent increase

Q: And the “Percent of cells expressing CD40L” value (T cells; TMP Dose 0.01 μM)?
A: 8.74%

Q: What about the “Percent of cells expressing CD40L” value (T cells; TMP Dose 0.1 μM) of the same molecule?
A: 13.3%

Q: And the “Percent of cells expressing CD40L” value (T cells; TMP Dose 1 μM)?
A: 38.8%

Q: What about the “Percent of cells expressing CD40L” value (T cells; TMP Dose 10 μM) of the same molecule?
A: 71%

Q: And the “Percent of cells expressing CD40L” value (T cells; TMP Dose 100 μM)?
A: 73.3%

Q: What about the “CD40L positive percent of live cells” value (Jurkat cells; [2]) of the same molecule?
A: 98.4%

Q: What about the “Geometric Mean of CD40L fluorescent intensity” value (Jurkat cells; [2]) of the same molecule?
A: 6068

Q: And the “CD40L positive percent of live cells” value (Jurkat cells; [3])?
A: 0.023%

Q: What about the “Geometric Mean of CD40L fluorescent intensity” value (Jurkat cells; [3]) of the same molecule?
A: 27.9

Q: What about the “IL12, TMP dose response” value ([1]; mDC-T cell co-culture) of the same molecule?
A: dose responsive increases

Q: And the “TNFα, TMP dose response” value ([1]; mDC-T cell co-culture)?
A: dose responsive increases

Q: And the “Cytokine Production IFNg” value ([1]; DMSO)?
A: 3791.2 pg/mL

Q: And the “Cytokine Production IL12” value ([1]; DMSO)?
A: 0.2535 pg/mL

Q: And the “Cytokine Production TNFa” value ([1]; DMSO)?
A: 82.2712 pg/mL

Q: And the “Cytokine Production IFNg” value ([1]; TMP (0.1 μM))?
A: 7432.13 pg/mL

Q: And the “Cytokine Production IL12” value ([1]; TMP (0.1 μM))?
A: 0.0705 pg/mL

Q: And the “Cytokine Production TNFa” value ([1]; TMP (0.1 μM))?
A: 130.9627 pg/mL

Q: And the “Cytokine Production IFNg” value ([1]; TMP (0.5 μM))?
A: 3587.14 pg/mL

Q: And the “Cytokine Production TNFa” value ([1]; TMP (0.5 μM))?
A: 83.86 pg/mL

Q: And the “Cytokine Production IFNg” value ([1]; TMP (2 μM))?
A: 16375.2 pg/mL

Q: And the “Cytokine Production IL12” value ([1]; TMP (2 μM))?
A: 19.372 pg/mL

Q: What about the “Cytokine Production TNFa” value ([1]; TMP (2 μM)) of the same molecule?
A: 248.7836 pg/mL

Q: And the “Cytokine Production IFNg” value ([1]; TMP (10 μM))?
A: 13539.7 pg/mL

Q: And the “Cytokine Production IL12” value ([1]; TMP (10 μM))?
A: 59.254 pg/mL

Q: What about the “Cytokine Production TNFa” value ([1]; TMP (10 μM)) of the same molecule?
A: 251.2844 pg/mL

Q: And the “levels of IFNγ” value ([1]; mDC-T cell co-culture, 10 μM TMP)?
A: comparable to the levels observed with the constitutive construct OT-001661

Q: And the “IFNγ, TMP dose response” value ([1]; mDC-T cell co-culture, lower doses of TMP)?
A: dose responsive increase
